Measurements taken from US20240317847A1 (Bayer, published 2024).
One block for each binder: values may come before it.

How the values were obtained:
[1] = biological target: T1, human IL-11 (human, UniProt P20809 22-199); test: Tri-complex ELISA, hIL-11 + mIL-11Ra-Fc + hgp130-Fc, inhibition of complex formation
T1 construct: Invigate recombinant protein; biotinylated when immobilized in the Di-complex ELISA; also called hIL11; hIL-11
T1 sequence: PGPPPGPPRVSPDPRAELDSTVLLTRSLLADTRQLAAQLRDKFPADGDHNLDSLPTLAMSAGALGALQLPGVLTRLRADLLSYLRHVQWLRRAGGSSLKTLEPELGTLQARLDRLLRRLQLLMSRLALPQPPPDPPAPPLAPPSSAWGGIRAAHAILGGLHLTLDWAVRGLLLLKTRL
Procedure: (§1) In the Tri-complex ELISA format IL-11 antibodies are tested for their ability to inhibit the formation of a complex consisting of murine or human gp130-Fc fusion protein, with murine or human IL-11, and a murine IL11RA-Fc fusion protein. The assay format was adapted according to FIG. 18 (a, b), depending on whether murine or human IL-11 IgG antibodies were tested.
(§2) Bispecific antibodies were subjected to the experimental assay procedure described in Example 19 and IC50 [M], respectively efficacy (%) were calculated accordingly.

[2] = biological target: T2, murine IL-11 (mouse, UniProt P47873 22-199); test: Di-complex ELISA, murine IL11RA-Fc binding to immobilized mIL-11, competition
T2 construct: Invigate recombinant protein; biotinylated when immobilized in the Di-complex ELISA; also called mIL11; mIL-11
T2 sequence: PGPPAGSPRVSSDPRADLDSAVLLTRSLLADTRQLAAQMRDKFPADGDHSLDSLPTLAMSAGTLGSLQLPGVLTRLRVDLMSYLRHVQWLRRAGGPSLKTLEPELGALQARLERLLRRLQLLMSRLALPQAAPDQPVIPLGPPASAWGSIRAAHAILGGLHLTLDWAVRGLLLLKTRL
Procedure: In the Di-complex ELISA format anti IL-11 antibodies are tested for the ability to interfere with the formation of complexes consisting of immobilized murine IL-11 (Invigate, e.g., lot #C210819-09) or human IL-11 (Invigate, e.g., lot #C121021-19), and murine IL11RA-Fc fusion proteins or canine IL11RA-human-Fc fusion protein (FIG. 17a, b).
Bispecific antibodies were subjected to the experimental assay procedure described in Example 18 and IC50 [M], respectively efficacy (%) were calculated accordingly.

[3] = biological target: T2, murine IL-11; test: Tri-complex ELISA, mIL-11 + mIL-11Ra-Fc + mgp130-Fc, inhibition of complex formation
Procedure: as §1, §2

[4] = biological target: T3, human IL2Ra (human, UniProt P01589 22-240, limits assumed); test: ELISA on coated IL2Ra, signal ratio to isotype control at 1E-07 M antibody
T3 construct: coated on the ELISA plate; also called IL-2 receptor alpha
T3 sequence (looked up): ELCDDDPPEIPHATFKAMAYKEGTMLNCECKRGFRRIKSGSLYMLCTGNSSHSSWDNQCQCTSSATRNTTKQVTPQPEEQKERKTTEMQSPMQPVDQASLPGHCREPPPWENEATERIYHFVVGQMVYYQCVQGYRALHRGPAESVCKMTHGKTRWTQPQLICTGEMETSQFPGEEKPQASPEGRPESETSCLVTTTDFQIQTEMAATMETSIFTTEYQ
Procedure: IL2RA (Peprotech, Germany, #200-02RC) was coated at 1 or 0 μg/ml (buffer only control) in 30 μl coating buffer (Candor, #113500) per well on a 384 well microtiter plate (Maxisorb, Nunc, #460518) over night at 4-8° C. After two washes with 50 μl/well washing buffer (PBS+0.05% Tween, pH 7.4), the plates were incubated for two hours at room temperature with 50 μl/well SmartBlock (Candor, #113500). After blocking, the plates were washed three times with washing buffer. Then, a dilution series of the respective antibody (1E-7 [M] down to 2E-13 [M]) in PBS+0.05% Tween, 10% SmartBlock were added in 30 μl to the microtiter plate and incubated for 90 min at room temperature. After three additional washes, 30 μl anti mouse IgG HRP-conjugated antibody (Biotechne, HAF007), diluted 1:1000 in PBS+0.05% Tween (pH 7.4), were added per well and incubated for one hour. After three additional washes, a mixture of Amplex red (Invitrogen, #12222, 10 mM stock solution in DMSO) 1:1000 diluted in PBS and H2O2 (30%, Merck, #107209)) diluted 1:10000 in PBS were added as substrate with 30 μl per well and incubated for 20 min in the dark. Relative fluorescence was measured with a microtiter plate reader at 535/590 nm.
Bispecific antibodies were subjected to the experimental assay procedure described in Example 20. Ratios of the signals generated at an antibody concentration of 1E-07 [M] by the respective bispecific antibody versus those of an isotype control antibody were calculated and are shown in Table E29. The bispecific antibodies show no binding to IL-2 Ra.

[5] = biological target: T1, human IL-11; test: cell-based or functional assay
[6] = biological target: T2, murine IL-11; test: cell-based or functional assay
[7] = biological target: T1, human IL-11; test: SPR (Biacore), 25 C, antibody captured via anti-Fc, IL-11 as analyte
Procedure: (§3) To assess the binding kinetics and affinity of anti-IL-11 bispecific antibodies as well as their species cross-reactivity profile, binding assays were conducted using surface plasmon resonance (SPR). […] Antibodies were captured either via anti-human Fc IgGs (“Human antibody capture kit”, Order No. BR100839, Cytiva) or via anti-mouse Fc IgGs (“Mouse antibody capture kit, Order No. BR100383, Cytiva) covalently amine coupled to a Series S CM5 sensor chip (Cytiva) depending on the isotype. The amine coupling was carried out according to the manufacturer's instructions using 1-ethyl-3-(3-dimethylaminopropyl) carbodiimide hydrochloride (EDC), N-hydroxysuccinimide (NHS) and ethanolamine HCl, pH 8.5 (“Amine Coupling Kit” BR-1000-50, Cytiva.). Human, mouse, cynomolgus or rat IL-11 was used as analyte at several dilutions within the concentration range from 0.05-200 nM. For binding assays with only one concentration 200 nM IL-11 was used. The sensor surface was regenerated with glycine pH 1.7 after each antigen injection. Obtained sensorgrams were double referenced (subtraction of reference flow cell signal and buffer injection) and were fitted to a 1:1 Langmuir binding model to derive kinetic data using the Biacore T200 Evaluation software or the Biacore Insight software.
(§4) If no value is reported, there was either no binding or very low binding and multiphasic binding behavior.

[8] = biological target: T4, cynomolgus IL-11 (cynomolgus, UniProt P20808 22-199); test: as above
T4 construct: Invigate recombinant protein; also called cIL11; Macaca IL-11
T4 sequence: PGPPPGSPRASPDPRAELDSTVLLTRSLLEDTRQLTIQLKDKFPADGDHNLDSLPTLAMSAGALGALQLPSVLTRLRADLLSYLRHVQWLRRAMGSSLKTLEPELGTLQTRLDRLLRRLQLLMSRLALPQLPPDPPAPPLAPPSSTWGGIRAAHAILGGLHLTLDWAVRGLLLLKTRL
Procedure: as §3, §4

[9] = biological target: T2, murine IL-11; test: as above
Procedure: as §3, §4

[10] = biological target: T5, rat IL-11 (rat, UniProt Q99MF5 22-199); test: as above
T5 construct: Invigate recombinant protein; also called rIL11
T5 sequence: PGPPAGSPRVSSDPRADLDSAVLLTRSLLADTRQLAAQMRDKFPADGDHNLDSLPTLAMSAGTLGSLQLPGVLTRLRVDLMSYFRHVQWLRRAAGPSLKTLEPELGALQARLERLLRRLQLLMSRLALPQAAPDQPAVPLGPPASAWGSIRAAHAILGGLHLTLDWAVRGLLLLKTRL
Procedure: as §3, §4

[11] = biological target: T6, human IL-11 (human, UniProt P20809 22-199); test: cell-based or functional assay; remark: listed apart in the source
T6 sequence: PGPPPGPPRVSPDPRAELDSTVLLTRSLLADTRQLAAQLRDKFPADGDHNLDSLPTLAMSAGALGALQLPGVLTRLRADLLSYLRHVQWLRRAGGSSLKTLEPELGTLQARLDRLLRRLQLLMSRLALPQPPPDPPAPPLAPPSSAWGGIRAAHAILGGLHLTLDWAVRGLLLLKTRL

[12] = biological target: T7, cynomolgus IL-11 (cynomolgus, UniProt P20808 22-199); test: cell-based or functional assay
T7 sequence: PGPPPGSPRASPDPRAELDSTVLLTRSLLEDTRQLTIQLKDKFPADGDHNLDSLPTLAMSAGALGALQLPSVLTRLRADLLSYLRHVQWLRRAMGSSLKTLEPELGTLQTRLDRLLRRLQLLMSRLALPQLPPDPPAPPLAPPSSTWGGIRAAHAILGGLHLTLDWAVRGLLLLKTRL

[13] = biological target: T8, murine IL-11 (mouse, UniProt P47873 22-199); test: cell-based or functional assay; remark: listed apart in the source
T8 sequence: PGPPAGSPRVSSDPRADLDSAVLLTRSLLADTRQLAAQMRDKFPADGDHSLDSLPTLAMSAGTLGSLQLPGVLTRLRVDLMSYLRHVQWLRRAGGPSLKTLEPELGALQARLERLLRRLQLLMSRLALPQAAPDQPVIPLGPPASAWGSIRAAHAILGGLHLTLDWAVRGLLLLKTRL

[14] = biological target: T9, rat IL-11 (rat, UniProt Q99MF5 22-199); test: cell-based or functional assay
T9 sequence: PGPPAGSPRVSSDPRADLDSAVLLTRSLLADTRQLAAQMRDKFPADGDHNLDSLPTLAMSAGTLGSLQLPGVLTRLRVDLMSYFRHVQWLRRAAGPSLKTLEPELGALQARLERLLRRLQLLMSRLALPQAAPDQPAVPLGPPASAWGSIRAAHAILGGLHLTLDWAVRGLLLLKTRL

[15] = biological target: T6, human IL-11; test: Di-complex ELISA, competitor murine IL11RA-Fc on coated IL-11
[16] = biological target: T8, murine IL-11; test: as above
[17] = biological target: T6, human IL-11; test: SPR 37 C, antibody captured, IL-11 as analyte
[18] = biological target: T7, cynomolgus IL-11; test: SPR 37 C, antibody captured, IL-11 as analyte
[19] = biological target: T8, murine IL-11; test: SPR 37 C, antibody captured, IL-11 as analyte
[20] = biological target: T9, rat IL-11; test: SPR 37 C, antibody captured, IL-11 as analyte

Efficacy (%) [1]: 105% | IC50 [1]: 6.28 nM | IC50 [2]: 35 nM | Efficacy (%) [3]: 94% | IC50 [3]: 1.81 nM | Ratio IL-2Ra Binding Signal Antibody/Isotype Control [4]: 852 ratio | Efficacy (%), Stat3 reporter gene assay [5]: 102% | IC50, Stat3 reporter gene assay [5]: 0.31 nM | Efficacy (%), Stat3 reporter gene assay [6]: 93.9% | IC50, Stat3 reporter gene assay [6]: 1 nM | Kd [7]: 0.011 nM | Kd [8]: 0.025 nM | Kd [9]: 0.005 nM | Kd [10]: 0.0026 nM
B1: TPP-20489 (bispecific antibody, IgG1)
chain 1: not shown
chain 2: EVQLLESGGGLVQPGGSLRLSCAASGFTFSHYDMNWLRQAPGKGLEWVGVISYDGSNKFYADFVKGRFTISRDNSKNTLYLQMNSLRAEDTAVYYCARTPGSHFDYWGQGTLVTVSSGGGGSGGGGSGGGGSQSVLTQPPSASGTPGQRVTISCSGSSSNIGNNAVNWYQQLPGTAPKLLIYYDDLLPSGVPDRFSGSKSGTSASLAISGLRSEDEADYYCSAWDDSLNGVVFGGGTKLTVLGGGGSGGGGSGGGGSGVECPPCPAPELLGGPSVFLFPPKPKDTLMISRTPEVTCVVVDVSHEDPEVKFNWYVDGVEVHNAKTKPREEQYNSTYRVVSVLTVLHQDWLNGKEYKCKVSNKALPAPIEKTISKAKGQPREPQVCTLPPSRDELTKNQVSLSCAVKGFYPSDIAVEWESNGQPENNYKTTPPVLDSDGSFFLVSKLTVDKSRWQQGNVFSCSVMHEALHNHYTQKSLSLSPG
notes: scFv-kih-hIgG1

RGA Efficacy (%) [11]: 76.7% | RGA IC50 [11]: 3.7 nM | RGA Efficacy (%) [12]: 52.4% | RGA Efficacy (%) [13]: 90.9% | RGA IC50 [13]: 8.1 nM | RGA Efficacy (%) [14]: 81.3% | RGA IC50 [14]: 8.8 nM | Efficacy (%) [15]: 97.2% | IC50 [15]: 2.9 nM | Efficacy (%) [16]: 98.4% | IC50 [16]: 3.3 nM | Kd [17]: 1.4 nM | binding result [18]: no binding (tested: IL-11 up to 200 nM) | Kd [19]: 1.8 nM | Kd [20]: 3.2 nM
B2: TPP-23552 (antibody, human IgG1, kappa)
heavy: not shown
light: DIVLTQSPASLALSPGERATLSCRASKSVSTSGYSYIHWYQQKPGQPPRLLIYLASNLDSGVPARFSGSGSGTDFTLNIHPLEEEDFATYYCQHSRDLPPTFGQGTKLEIKRTVAAPSVFIFPPSDEQLKSGTASVVCLLNNFYPREAKVQWKVDNALQSGNSQESVTEQDSKDSTYSLSSTLTLSKADYEKHKVYACEVTHQGLSSPVTKSFNRGEC
notes: hIgG1, Kappa; also called BSN 3C6 (WO2019238882)
